The series is described as follows: soluble on expression in E. coli; label from the status in PepcDB or PDB records.
As for “MIDPVGLPDTFVRIVLVGSGNLATQTALALSEAASPPVQVWSRNAEHAERLASMLPGATATDRTEELLCDAELYLLAVSDHALESVAATLPPTSGIWAHTAGSMPMDTLRPYHAQIGVFYPLQTFSRERRVDYSSIPIYIEGNDESVVRLLESVARLISRNVLRCTSEQRLYLHLAAVFACNFTNHLYALSEQMLAAHGLPPRSLAPLIAETAAKVQEMSATEAQTGPAKRDDTNTLQKHLGLLNPYPDWQEIYRILSDSIRKMYGPKEQ”, the “soluble on expression in E. coli” value was “not soluble”. The result for “MTLRYEIFPVTPFRQNCTLIWDDESGEAVLTDVGGDVPFLLQALANRKLTLTAIWLTHGHLDHAGGVVEMLKTHKVPVLGPHPDDEFLLQSLPQTTAQYGFPVSPAFAPNRWLEEGETLTVGRYAFQVLHIPGHTPGHIVFYCAEAELLIAGDVLFYETIGRTDFPRGNHADLINNIRNKLFTLPETVQVVAGHGRMTSIGHEKRHNPFF” reads “not soluble”; that for “GPGSMEAVGTADRPSLEFCPQAQNSPQTRPLLCVRRPPETVRRRHDRNPPRDSTQTADAVPWDSSSSPPHASCTAGGYKTSRGARQMALPFLFPPPGVGQRSFVADRVHRRQHCGLAQPLPQPWLRAASRSILLGDASSALPPLDPPAARPSVCRQRLALHGSGG”, “not soluble”; that for “MTQTFADQKRKTVETAEFTEDGRYKRKVRSFVLRTGRLSEFQRNMMNDNWGTLGLDYQTEPFDFAKIYGNDNPVVLEIGFGMGKSLVDMAFANPDKNYLGIEVHTPGVGACIAYAVEKGVTNLRVICHDATEILRDSIADGALGGLQLFFPDPWHKAKHHKRRIVQPHFVTQVIQKLGENGFIHMATDWENYAEQMLEVLSANTDLVNTSKNGDYIPRPDFRPLTKFEARGYKLGHGVWDLYFVKK”, “not soluble”. “MGHHHHHHSHMEPEAFEICPYDPHHRIPLSRFQYHLASCRRKNPKKAKKMATCKYNACHVVPIKNLEEHEAVCVNRSAVEEEDTENPLKVSPPSSEQNDDTQQVSPCLPSPDIWNVDGANCQHVFVLKTFFPQKVVCENDTKESARETSPQKILRPGQ”: the “soluble on expression in E. coli” value was “not soluble”. As for “MIKVVVRKRPLSELEKKKKDSDIITVKNNCTLYIDEPRYKVDMTKYIERHEFIVDKVFDDTVDNFTVYENTIKPLIIDLYENGCVCSCFAYGQTGSGKTYTMLGSQPYGQSDTPGIFQYAAGDIFTFLNIYDKDNTKGIFISFYEIYCGKLYDLLQKRKMVAALENGKKEVVVKDLKILRVLTKEELILKMIDGVLLRKIGVNSQNDESSRSHAILNIDLKDINKNTSLGKIAFIDLAGSERGADTVSQNKQTQTDGANINRSLLALKECIRAMDSDKNHIPFRDSELTKVLRDIFVGKSKSIMIANISPTISCCEQTLNTLRYSSRVKNKGNSKLEGKPIPNPLLGLDSSRTGHHHHHH”, the “soluble on expression in E. coli” value is “soluble”. With “MGSDKIHHHHHHMLYFQNAFSLRGTHDAIIVGIFEGHEPLVAELKQLDETLNGHLSTLVKQKQLKTEAGKITELYTFGLIETKWVLAVGLGKRSDASADTLRAGFAAVGERVKEKRMTNVTVVLPSFVSERVSEQEVARLFGESFTMGYSTIDDYKERTNLVDKSLNSVTVFHGHRPVETGIREGIAYGNGSVYAERLMSIPRTLLSPTELVTEAQALANRHGFDTETLEQKELEKLGMGGLLAASGPAENATMIVLKNKGKREEREVIGLIGAGGNGIFSPWMGGAAAVLGAMDIIGSLHSQKNVLAILPIVEQEQGQPKPMPGDVIRSYSGKTIEVDHIEAVGALLLADGITYAKELGVHSLVTVAPLAEELRSILGDKFTAAVTNDESWLKKMQEASLKSGEPIWTLPYYRPYKKRLQEESVADLRLTIGRFANCMATALFVGEFAENDPWVHLDIAGTVARARGIMVRTLAAFVLNNGERELR” the entry was “not soluble”; with “MKKVTKSIKREGSPSDEEYTLEEDPIEFELEKMERGSSNGESEEESQRDQKQADSIIDDMVEQNDQEQEAAGEQDVERENDLRKMYELSLLPPAAIAAQIQQMEKEIYELSQWEARELIRSKHLRIFGNCRRRANKLEHHHHHHH”, “not soluble”. As to “MSGKERNLPTHRISRFSKFASLATRVAGNVIAEGTKQIAKGNRPKAKDLLLTPQNIARLTDQLAHLRGAAMKLGQMLSMDAGDILEPELAEILARLRSNADPMPSKQLNSVMVNALGEQWKSAFLAFNFKPIASASIGQVHQAYSDAGDNLAVKVQYPGIRKSIDSDVDNVGTLLKIVGLIPESVDYKGLLEEAKKQLYDEANYEREAQFACRYHEALQGHPHFVVPKIYPEISSQSVLAMSFIQGTPIEKIANYDQETRDFVMHNLLELLFKELFEFKMVQTDPNFANYLYLEESKQIGLLDFGATREYSERFSSGYRQAFSSVVNDDEQGLNDALEQIGFFAQSIKPEQRMAILDLVKMACEPMLIDEAYDFKASGLAQKLREAGTILSMEQDYWHTPPADAIFLHRKIGGMYLLAARIGAKVNIRRLVQPYLKINSGLEHHHHHH”, the “soluble on expression in E. coli” value is recorded as “not soluble”. For the sequence “MGSDKIHHHHHHMPRLIVLNDNTPSRGLINDWGWSILIEGRERFLFDADTNPLVLAHNSKVLNVNLRNLDFAVLSHWHYDHYGGFEYIAELNPGIKFYAPPQGLALAMRWGFQPIAINFGGKIEEEVYTSGVIDGIEQAIGLETSSGLVVIVGCSHPGVDRMVEEVLKVSGYEKAYLVIGGFHSPPIHRLRNLARLSELIAPAHCSGDVAKAFIKRNYKEKYVDVKTGTILEI”, the “soluble on expression in E. coli” value is on record as “not soluble”. Consider “MSLRQAHFLKGKDAMNNPSVIPAFDFREMVTTLDNKIITTSLKVADYFGKRHKDVLRAIRNLKCSDDFTQRNFAPIDFIDKNGDVQPMYNITRDGCMMLVMGFTGKTAAAVKECYINAFNWMAEQLNRRMAMGEEGHHHHHH”, for which the “soluble on expression in E. coli” value is “soluble”. The result for “MGSDKIHHHHHHMKSQWECFLQNLGVWEGSFSNFSPEGTLLNDTSSRLCLEGLNNNQTVRLTLSRSGKDDVIREFRSVGGGLLFFENGSFSEGLIQLGPFSEFGGELAFVHENRRLRLVQLFDRNGHLNGLTLIREHLAGTPVAERPLLQINDLLGEWRGQAVTIYRDLRPPDIYSTTLKIQLDDAGRLMQSTSFGERTITSTATIKGSIVLFDQDPEKQVQVLLLPDGASATSPLKVQLRQPLFLEAGWLIQSDLRQRMIRSYNDKGEWVSLTLVTEERV” reads “not soluble”; that for “MKADIARCAYMHAHGGFYFDTDYKLLRPLDAQVLSQHCVLPVEEGAPGQEDFKIGNAVFGSEPGHPFWRAFIEHIFTAHAPETLQDHREIPMISGPRGLTRFYNAHGGQFADILFPPRDAFHPDRTWFGLGHRGGKSAVGSHLCWASWRGKSPRRALTNYLRRKLNAVPILEHHHHHH”, “not soluble”; that for “MQIITTTFIQKVILGSHQLHEQLSIVEARMIESAIVSMLTESFCENEQTLKYLARLLSPMSYMDVINARRGKKICGYPLCYKSAAENSSDGFFIHSMYCNNYHSKCSLYLMRQLSQTPLHERRGVHLTSYINLEFDDMYSVSLLEELVGSEVPIDTVKSLITSFKDLEFDDTYKNEPLPLDVYFGQLTTDEETCIE”, “not soluble”. Regarding “MKGGDRAYTRGPSLGWLFAKCCCCFPCRDAYSHSSSENGGKSESVANLQAQPSLNSIHSSPGPKRSTNTLKKWLTSPVRRLNSGKADGNIKKQKKVRDGRKSFDLGSPKPGDETTPQGDSADEKSKKGWGEDEPDEESHTPLPPPMKIFDNDPTQDEMSSSLLAARQASTEVPTAADLVNAIEKLVKNKLSLEGSSYRGSLKDPAGCLNEGMAPPTPPKNPEEEQKAKALRGRMFVLNELVQTEKDYVKDLGIVVEGFMKRIEEKGVPEDMRGKDKIVFGNIHQIYDWHKDFFLAELEKCIQEQDRLAQLFIKHERKLHIYVWYCQNKPRSEYIVAEYDAYFEEVKQEINQRLTLSDFLIKPIQRITKYQLLLKDFLRYSEKAGLECSDIEKAVELMCLVPKRCNDMMNLGRLQGFEGTLTAQGKLLQQDTFYVIELDAGMQSRTKERRVFLFEQIVIFSELLRKGSLTPGYMFKRSIKMNYLVLEENVDNDPCKFALMNRETSERVVLQAANADIQQAWVQDINQVLETQRDFLNALQSPIEYQRKERSTAVMRSQPARLPQASPRPYSSVPAGSEKPPKGSSYNPPLPPLKISTSNGSPGFEYHQPGDKFEASKQNDLGGCNGTSSMAVIKDYYALKENEICVSQGEVVQVLAVNQQNMCLVYQPASDHSPAAEGWVPGSILAPLTKATAAESSDGSIKKSCSWHTLRMRKRAEVENTGKNEATGPRKPKDILGNKVSVKETNSSEESECDDLDPNTSMGILNPNFIQEVAPEFLVPLVDVTCLLGDTVILQCKVCGRPKPTITWKGPDQNILDTDNSSATYTVSSCDSGEITLKICNLMPQDSGIYTCIATNDHGTTSTSATVKVQGVPAAPNRPIAQERSCTSVILRWLPPSSTGNCTISGYTVEYREEGSQIWQQSVASTLDTYLVIEDLSPGCPYQFRVSASNPWGISLPSEPSEFVRLPEYDAAADGATISWKENFDSAYTELNEIGRGRFSIVKKCIHKATRKDVAVKFVSKKMKKKEQAAHEAALLQHLQHPQYITLHDTYESPTSYILILELMDDGRLLDYLMNHDELMEEKVAFYIRDIMEALQYLHNCRVAHLDIKPENLLIDLRIPVPRVKLIDLEDAVQISGHFHIHHLLGNPEFAAPEVIQGIPVSLGTDIWSIGVLTYVMLSGVSPFLDESKEETCINVCRVDFSFPHEYFCGVSNAARDFINVILQEDFRRRPTAATCLQHPWLQPHNGSYSKIPLDTSRLACFIERRKHQNDVRPIPNVKSYIVNRVNQGT”, the “soluble on expression in E. coli” value is reported as “soluble”. “MAKRGRPCGFDREQALRRALDVFWEAGYEGVTMAALKEAMGGICAPSMYAAYGSKEALFRSAVELYLSQECQLSKGAFALPTARESIAALLESAAVSYTTEGKPRGCLVDLSTTNFSPANKGVEDYLRDHRRRAARLLRERFARGVADGDVPAGADLDALTSFYSSVLQGLSIQARDGASRQQLLAIGRCAMAAWDSLLAVEAA”: the “soluble on expression in E. coli” value is given as “not soluble”. The result for “MAIKNAFYAQSGGVTAVINASACGVIQTARKHPDQIGKVYAGRNGIIGALKEELIDTSLESDDAIQALIHTPGGAFGSCRYKLKNISENQREYERLIEVFRAHDIGYFFYNGGGDSQDTAYKVSQLADRMGYPITCIGVPKTVDNDLPFTDCCPGFGSVAKYIATSTLEASLDIKSMCETSTKVFILEVMGRHAGWIAAAGGLAGQSEGEPPHVILFPEIPFNREKFLERVDQCVRDYGYCVVVASEGAQYEDGRFVADAGAKDAFGHTQLGGVAPALANMVKQALGHKYHWAVADYLQRAARHIASATDVEQAYAVGKAAVEMALAGKQALMPTIVRDQAKPYRWSIGEANLSEVANQEKKMPIHYITDNGFGITQDCRDYLQPLIAGESFPPFDDGLPRVAKLKNQLVEKKLRTEFELLEHHHHHH” reads “not soluble”. Regarding “MVETLPALEIGEDERLDLENLATGAFFPVKGFMTREEALSVAHEMRLPTGEVWTIPILLQFREKPRVGPGNTVALLHGGERVALLHVAEAYELDLEALARAVFGTDSETHPGVARLYGKGPYALAGRVEVLKPRPRTPLEKTPEEVRAFFRQRGWRKVVAFQTRNAPHRAHEYLIRLGLELADGVLVHPILGAKKPDDFPTEVIVEAYQALIRDFLPQERVAFFGLATPMRYAGPKEAVFHALVRKNFGATHFLVGRDHAGVGDFYDPYAAHRIFDRLPPLGIEIVKVGAVFHCPLCGGIASERTCPEGHREKRTAISMTKVRALLREGKAPPSELVRPELLPILRRGV”, the “soluble on expression in E. coli” value is given as “soluble”. The result for “MLNQPRLDEIMRLLAQQQRVKASDLAQLLFVSEETIRRDFKHLEEEGRLRRIHGGAILPRSSEELPLQERSRLKPRAKAGIATCAAQLVTEGMAIFLDTGTSTLALAQQLTRFSQLKIITNSLDIAQLISHQSDNQVLVAPGDVRRTDNALIGPHTLEFARQFHYDIAFMGIGGIDLDLGLMDYQEPEAMLRRTLVRHCARSVVLADDGKFGHRTFINTLPFAAITTLVTNRPLSDEFATRLEKDHVDTLYP” reads “not soluble”.

The record behind these values is the DeepSol protein solubility set.
